Tests used:
Type in all cases: in vivo, Sprague-Dawley rats
Conditions in all cases: rat, 7.4 nmol
[1] = Transdermal administration (skin of the face) of 125I-IGF-I, tissue distribution by gamma counting
Description: Male Sprague-Dawley rats, 200-310 grams, are anesthetized with intraperitoneal pentobarbital (40 mg/kg). Drug delivery to the brain and spinal cord was assessed after transdermal administration of 7.4 nmol of ^125I-IGF-I in phosphate buffered saline, pH 7.4. Rats are placed in on their bellies with posterior elevated and mouth lowered. ^125I-IGF-I (7.4 nmol) placed on the skin of the rat's face. Rats subsequently underwent perfusion-fixation within minutes following the completion of ^125I-IGF-I administration. Perfusion-fixation was performed with 50-100 ml physiologic saline followed by 500 ml of fixative containing 1.25% glutaraldehyde and 1% paraformaldehyde in 0.1 M Sorenson's phosphate buffer, pH 7.4, prior to dissection and ^125I measurement by gamma counting. Areas dissected included selected brain regions as well as the cervical, thoracic and sacral regions of the spinal cord.

[2] = Sublingual administration of 125I-IGF-I, tissue distribution by gamma counting
Description: Male Sprague-Dawley rats, 200-310 grams, were anesthetized with intraperitoneal pentobarbital (40 mg/kg). Drug delivery to the brain and spinal cord was assessed after sublingual administration of 7.4 nmol of ^125I-IGF-I in phosphate buffered saline, pH 7.4. Rats were placed in on their bellies with posterior elevated and mouth lowered. ^125I-IGF-I (7.4 nmol) on a small strip of filter paper was placed under the tongue. Such methods for sublingual administration are known in the art. Purushotham et al. Am J. Physiol. 269,G867-G873 (1995). Rats subsequently underwent perfusion-fixation within minutes following the completion of ^125I-IGF-I administration. Perfusion-fixation was performed with 50-100 ml physiologic saline followed by 500 ml of fixative containing 1.25% glutaraldehyde and 1% paraformaldehyde in 0.1 M Sorenson's phosphate buffer, pH 7.4, prior to dissection and ^125I measurement by gamma counting. Areas dissected included selected brain regions as well as the cervical, thoracic and sacral regions of the spinal cord.

[3] = Conjunctival administration (lower eyelid) of 125I-IGF-I, tissue distribution by gamma counting

## 125I-IGF-I: insulin-like growth factor I, a single chain peptide having 70 amino acids and a molecular weight of about 7,600 daltons, radioiodinated
[1]
  appearance of neurologic agent in the brain and spinal cord (radioactivity): Rapid appearance
[2]
  concentration in meninges or dura surrounding olfactory bulb, dorsal and ventral regions of the brain, trigeminal nerve and upper cervical spinal cord: High concentrations
  concentration in the trigeminal nerve itself: high concentrations
  presence in the olfactory bulb, spinal cord and brain stem: found
[2]; cervical, thoracic, lumbar or sacral regions
  concentration of neurologic agent in spinal cord regions (comparison): higher in the cervical region of the spinal cord than in the thoracic region and higher in the thoracic region than in the lumbar or sacral regions
[2]; perfusion-fixation within minutes after administration
  appearance of neurologic agent in the brain and spinal cord (radioactivity): Rapid appearance
[3]
  appearance of neurologic agent in the brain and spinal cord (radioactivity): Rapid appearance

Reference: patent US7273618B2, “Method for administering agents to the central nervous system” (Chiron Corporation, priority 1998, dated 2007)
